Test results from patent publication US20160362487A1 (Regeneron, published 2016).

Key:
[1] = target: T1, human IL-33 (R&D Systems, #3625-IL-010/CF) (human, UniProt O95760 112-270); assay: cell-based or functional assay
T1 sequence (looked up): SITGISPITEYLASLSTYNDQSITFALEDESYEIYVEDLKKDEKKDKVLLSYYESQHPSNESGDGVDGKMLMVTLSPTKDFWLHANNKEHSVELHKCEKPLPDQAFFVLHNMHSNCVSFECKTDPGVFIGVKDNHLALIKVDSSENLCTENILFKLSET

[2] = target: T2, cynomolgus monkey IL-33 expressed with a C-terminal hexahistidine tag (cynomolgus monkey); assay: cell-based or functional assay
T2 chain: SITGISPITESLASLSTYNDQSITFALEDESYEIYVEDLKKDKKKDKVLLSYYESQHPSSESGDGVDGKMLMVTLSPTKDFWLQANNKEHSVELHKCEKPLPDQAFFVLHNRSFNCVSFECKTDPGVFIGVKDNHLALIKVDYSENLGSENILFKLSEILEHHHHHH

[3] = target: T1, human IL-33 (R&D Systems, …); assay: SPR 25C pH7.4, mAb captured
Procedure: (§1) Equilibrium dissociation constants (KD values) for IL-33 binding to purified anti-IL-33 monoclonal antibodies were determined using a real-time surface plasmon resonance biosensor using a Biacore 4000 instrument. The Biacore sensor surface was first derivatized by amine coupling with either a polyclonal rabbit anti-mouse antibody (GE, # BR-1008-38) or with a monoclonal mouse anti-human Fc antibody (GE, # BR-1008-39) to capture anti-IL-33 monoclonal antibodies expressed with mouse or with human IgG4 constant regions, respectively. All Biacore binding studies were performed in 0.01M ADA pH 7.4, 0.15M NaCl, 3 mM EDTA, and 0.05% v/v Surfactant Tween-20 (ABS-ET running buffer). […] Association of either hIL-33 or MfIL-33-6His to the captured monoclonal antibody was monitored for 4 minutes and their dissociation in ABS-ET running buffer was monitored for 10 minutes. The effect of reduced pH on the binding of each anti-IL-33 antibody to either hIL-33 or MfIL-33-6His was studied using an in-line pH chase assay format in 0.01M ADA pH 6.0, 0.15M NaCl, 3 mM EDTA, and 0.05% v/v Surfactant Tween-20 (ABS-ET pH6 buffer). To achieve this, association of either hIL-33 or MfIL-33-6His to the captured monoclonal antibody was monitored for 4 minutes in ABS-ET running buffer. Following a 30 second dissociation of either hIL-33 or MfIL-33-6His in ABS-ET running buffer, ABS-ET pH6 buffer was injected for 3 minutes, and the analyte dissociation under the low-pH conditions was measured. All the binding kinetic experiments were performed at both 25° C. and 37° C. Kinetic association (kₐ) and dissociation (kd) constants were determined by fitting the real-time sensorgrams to a 1:1 binding model using Scrubber 2.0c curve fitting software. Binding dissociation equilibrium constants (KD) and dissociative half-lives (t½) were calculated from the kinetic rate constants as: […]

[4] = target: T2, cynomolgus monkey IL-33 expressed with …; assay: SPR 25C pH7.4, mAb captured
Procedure: as §1

[5] = target: T1, human IL-33 (R&D Systems, …); assay: SPR 37C pH7.4, mAb captured
Procedure: as §1

[6] = target: T2, cynomolgus monkey IL-33 expressed with …; assay: SPR 37C pH7.4, mAb captured
Procedure: as §1

[7] = target: T1, human IL-33 (R&D Systems, …); assay: SPR 37C, pH6.0 chase, mAb captured
Procedure: as §1

[8] = target: T2, cynomolgus monkey IL-33 expressed with …; assay: BLI; mAb-1 on captured MfIL-33-6His
Procedure: (§2) Binding competition between a panel of different anti-IL-33 monoclonal antibodies was determined using a real time, label-free bio-layer interferometry assay on an Octet® HTX biosensor (ForteBio, A Division of Pall Life Sciences). The experiment was performed at 25° C. using a buffer of 0.01M HEPES pH7.4, 0.15M NaCl, 3 mM EDTA, 0.05% v/v Surfactant Tween-20, and 0.1 mg/ml BSA (HBS-ET kinetics buffer) with the plate shaking at a speed of 1000 rpm. […] The antigen-captured biosensors were then saturated with a first anti-IL-33 monoclonal antibody (subsequently referred to as mAb-1) by immersion into wells containing 50 μg/mL solution of mAb-1 for 5 minutes. The biosensors were then dipped into wells containing a 50 μg/mL solution of a second anti-IL-33 monoclonal antibody (subsequently referred to as mAb-2) for 4 minutes. The biosensors were washed in HBS-ET kinetics buffer in between every step of the experiment. The real-time binding response was monitored during the experiment, and the maximum binding response for each binding step was recorded. The response of mAb-2 binding to MfIL-33-6His pre-complexed with mAb-1 was measured, and competitive/non-competitive behavior of different anti-IL-33 monoclonal antibodies with respect to each other was determined.

[9] = target: T2, cynomolgus monkey IL-33 expressed with …; assay: BLI; captured MfIL-33-6His, mAb-1 step with Buffer
Procedure: as §2

[10] = target: T2, cynomolgus monkey IL-33 expressed with …; assay: SPR 37C, pH6.0 chase, mAb captured
Procedure: as §1

| Binder | IC50, inhibition of 10 pM hIL-33 activation of HEK293/hST2/NFkB-luciferase cells [1] [M] | IC50, inhibition of 5 pM MfIL-33-6His activation of HEK293/hST2/NFkB-luciferase cells [2] [M] | Kd [3] [nM] | koff [3] [s⁻¹] | kon [3] [M⁻¹ s⁻¹] | t½ [3] [min] | Kd [4] [nM] | koff [4] [s⁻¹] | kon [4] [M⁻¹ s⁻¹] | t½ [4] [min] | Kd [5] [nM] | koff [5] [s⁻¹] | kon [5] [M⁻¹ s⁻¹] | t½ [5] [min] | Kd [6] [nM] | koff [6] [s⁻¹] | kon [6] [M⁻¹ s⁻¹] | t½ [6] [min] | mAb-1 Binding (nm) [8] [nm] | mAb-2 Binding to the Pre-complex of mAb-1 & MfIL-33-6xHis [9] [nm] | also measured |
| --- | --- | --- | --- | --- | --- | --- | --- | --- | --- | --- | --- | --- | --- | --- | --- | --- | --- | --- | --- | --- | --- |
| H4H9629P (antibody, human IgG4, V domains shown, Human IgG4 Fc (H4H)) VH: EVQLVESGGGLVQPGGSLRLSCAASGFTFRSFAMSWVRQAPGKGLELVSDLRTSGGSTYYADSVKGRLTISRDNSKNTLYLQMNSLRAEDTAVYYCAKSHYSTSWFGGFDYWGQGTLVTVSS VL: DIQMTQSPSSVSASVGDRVTITCRASQGFSSWLAWYQQKPGKAPKLLIYAASSLQSGVPSRFSGSGSGTDFTLTITNLQPEDFATYYCQQANSFPLTFGGGTKVEIK | 1.3e-11 | 5.5e-08 | 0.29 | 0.000226 | 777000 | 51 | 23.9 | 0.0135 | 562000 | 0.9 | 0.508 | 0.000646 | 1.27e+06 | 18 | 32.4 | 0.0347 | 1.07e+06 | 0.3 | 0.72 | 0.3 | koff [7]: 0.00582 s⁻¹; t½ [7]: 2 min; t½ Ratio (pH 7.4/pH 6.0) [7]: 9 |
| H4H9633P (antibody, human IgG4, V domains shown, Human IgG4 Fc (H4H)) VH: EVQLVESGGGLVQPGGSLRLSCAASGFTFSSYVMSWVRQAPGKGLEWVSSISGNGGSTNYADSVKGRFTISRDNSKNTLFLEMNSLRAEDTAVYYCAKSLGTTTTFLGFDYWGQGTLVTVSS VL: DIQMTQSPSSVSASVGDRVTITCRASQGISSWLAWYQQKPGKAPKLLIYAASSLQSGVPSRFSGSGSGTYFTLTISSLQPEDFATYYCQQANSFPLTFGGGTKVEIK | 2.2e-10 | 1.3e-07 | 0.432 | 0.000283 | 656000 | 41 | 38 | 0.00997 | 262000 | 1.2 | 0.931 | 0.000689 | 740000 | 17 | 48.6 | 0.0227 | 468000 | 0.5 | 0.64 | 0.32 | koff [7]: 0.0024 s⁻¹; t½ [7]: 5 min; t½ Ratio (pH 7.4/pH 6.0) [7]: 3.5 |
| H4H9676P (antibody, human IgG4, V domains shown, Human IgG4 Fc (H4H)) VH: EVQLVESGGGLVQPGGSLRLSCSASGFTFSSYAMNWVRQAPGKGLEWVTAISGSGGGTYYADSVKGRFTISRDNSKNSLFLQLNSLRAEDTAVYYCAKQTYTSSWYGGFDIWGQGTMVTVSS VL: DIQMTQSPSSVSASVGDRVTITCRASQGFSSWLAWYQQIPGKAPKLLIYAASRLQSGVPSRFRGSGSGTDFTLTISSLQPEDFATYYCQQANSFPLTFGGGTKVEIK | 3.5e-11 | 8.4e-09 | 0.334 | 0.000345 | 1.03e+06 | 33 | 4.84 | 0.00412 | 852000 | 2.8 | 0.922 | 0.00128 | 1.38e+06 | 9 | 7.7 | 0.0144 | 1.87e+06 | 0.8 | 0.62 | 0.29 | koff [7]: 0.00524 s⁻¹; t½ [7]: 2 min; t½ Ratio (pH 7.4/pH 6.0) [7]: 4.1 |
| H4H9666P (antibody, human IgG4, V domains shown, Human IgG4 Fc (H4H)) VH: QVQLVQSGAEVKKPGASVKVSCKASGYTFTSYGISWVRQAPGQGLEWMGWIRAYNGYTNYAQKFQGRVTMTTDTSTNTAYMELRTLNSDDTAVYYCARDRYSGSFHGNFDYWGQGTLVTVSS VL: DIQMTQSPSSVSASVGDRVTITCRASQGIFSWLAWYQQKPGKAPKVLIYAASNLESGVPSRFSGSGSGTDFTLTISSLQPEDFATYYCQQANSLPLTFGGGTKVEIK | 3.5e-11 | 7.8e-08 | 0.551 | 0.00028 | 508000 | 41 | 15.9 | 0.00354 | 222000 | 3.3 | 0.681 | 0.00077 | 1.13e+06 | 15 | 32.7 | 0.0141 | 432000 | 0.8 | 0.57 | 0.32 | koff [7]: 0.0068 s⁻¹; t½ [7]: 2 min; t½ Ratio (pH 7.4/pH 6.0) [7]: 8.8 |
| H4H9672P (antibody, human IgG4, V domains shown, Human IgG4 Fc (H4H)) VH: EVQLVESGGGLVQPGGSLRLSCAASGFTLRSYVMYWVRQGPGKGLEGVSGISGSSGGTYYTDSVKGRFTISRDNSKNTLFLQMNSLRAEDTAVYFCARSVYSTTWYGGFQHWGQGTLVTVSS VL: DIQMTQSPSSVSVSVGDRVTITCRASQVISSWLAWYQLKPGKAPKLLIYAASSLQSGVPSRFSGSGSGTDFTLTISGLQPEDFAVYYCQQTNSFPLTFGGGTKVEIK | 2.5e-11 | 2e-08 | 0.527 | 0.000352 | 668000 | 33 | 8.22 | 0.0036 | 437000 | 3.2 | 1.05 | 0.00115 | 1.09e+06 | 10 | 13.7 | 0.013 | 946000 | 0.9 | 0.56 | 0.3 | koff [7]: 0.00541 s⁻¹; t½ [7]: 2 min; t½ Ratio (pH 7.4/pH 6.0) [7]: 4.7 |
| H1M9565N (antibody, mouse IgG1, V domains shown, Human variable domains, mouse IgG1 Fc (H1M)) VH: QVTLKESGPVLVKPTESLTLTCSVSGFSLSNVRMGVSWIRQSPGKALEWLAHIFSNDEKSYTTSLKTRLTISKDTSRSQVVLTMTDMDPGDTATYYCARIRNLAFNYWGQGTLVTVSS VL: not shown | 2.9e-08 | 1.7e-08 |  |  |  |  | 1.77 | 7.2e-05 | 40600 | 160 |  |  |  |  | 2.59 | 0.000202 | 78200 | 57 | 0.46 | 0.34 | koff [10]: 0.000228 s⁻¹; t½ [10]: 51 min; t½ Ratio (pH 7.4/pH 6.0) [10]: 1.1 |
